Where a chain is given by its changes, count along the chain named. In names and notes the source's numbering stands.
B1: Q115R Sin (enzyme, Staphylococcus aureus (plasmid pI9789))
chain: MIIGYARVSSLDQNLERQLENLKTFGAEKIFTEKQSGKSIENRPILQKALNFVRMGDRFIVESIDRLGRNYNEVIHTVNYLKDKEVQLMITSLPMMNEVIGNPLLDKFMKDLIIRILAMVSEQERNESKRRQAQGIQVAKEKGVYKGRPLLYSPNAKDPQKRVIYHRVVEMLEEGQAISKIAKEVNITRQTVYRIKHDNGLS
B2: T77I/I100T/Q115R Sin (enzyme, Staphylococcus aureus (plasmid pI9789))
chain: B1 chain with T77I, I100T

Molecular target: the molecule itself
Test: native gel or EMSA

Protein	binding result
B1	binds
B2	binds
